Assay results as given in patent publication US7217865B2, “Transgenic high tryptophan plants” (Monsanto Technology LLC, priority 2001, dated 2007).
Changes are numbered by the printed parent chain. Names and notes keep the numbering of the source. Read-outs that look alike come from different tables or passages of the source.

Tests used:
[1] = test system: C=C(O[C@@H]1C=C(C(=O)O)C=C[C@H]1O)C(=O)O; experiment: Anthranilate synthase enzyme assay and kinetic analysis, S51F mutant; type: biochemical, Agrobacterium tumefaciens; details: other: S51F, pH 7.0, 10 mM L-glutamine, 2.5–100 μM chorismate, 25.0 °C
Description: (§1) Site directed mutagenesis was used to generate ten single amino acid substitutions six sites. The mutations were introduced into the Agrobacterium tumefaciens AS in pMON34705 using the QuikChange™ Site-Directed Mutagenesis Kit (Stratagene). The primers used for site directed mutagenesis were SEQ ID NO:9–42 (FIG. 7; F=forward, R=reverse). Each primer sequence is specific for alteration of the nucleic acid at a specific location in the sequence and thus changing the encoded codon to code for a new amino acid. For example, S51C designates a change from serine to cysteine at amino acid position 51 in the Agrobacterium tumefaciens AS peptide sequence.
(§2) Following mutagenesis the sequence of the entire gene was reconfirmed and the variants expressed and purified from E. coli as described below for the wild type enzyme. The resultant plasmids comprising mutant Agrobacterium tumefaciens AS are suitably cloned into a plasmid for overproduction of protein using the T7 expression system as described in Example 1.
(§3) Agrobacterium tumefaciens AS wild type and mutant enzymes were expressed in E. coli as described in Example 1. The purification of all the Agrobacterium tumefaciens AS enzymes, including wild type and mutants therof, was performed at 4° C. The cells (approximate wet weight of 1 g) were suspended in 20 ml of purification buffer (50 mM potassium phosphate, pH […], 10 mM 2-mercaptoethanol, 10% glycerol) and lysed by ultrasonication (Branson sonifier Cell Disruptor, W185). Supernatant was collected after centrifugation of the homogenate at 20,000× g for 15 min. The supernatant was subjected to ammonium sulfate fractionation (30 to 65% saturation). The precipitate was collected after centrifugation at 20,000× g for […] and dissolved in 3 ml of the purification buffer and then loaded as a whole on an Econo-Pac 10DG desalting column, pre-equilibrated with the same buffer. Fractions containing the enzyme were detected by the developed assay and pooled. The pooled enzyme (4.3 mls) was loaded on a 10 ml DEAE Sephacel (Pharmacia Biotech) column (1.5×7.5 cm) equilibrated with the same buffer. The column was washed with 30 ml of the purification buffer and the enzyme was eluted with 30 ml of 50 mM NaCl in the same buffer. Fractions containing high AS activity were pooled and precipitated by 65% ammonium sulfate saturation and isolated and desalted as above. Fractions containing the enzyme were pooled and stored at −80° C.
(§4) The standard assay for Agrobacterium tumefaciens AS was performed at 25° C. in an assay buffer containing 100 mM potassium phosphate, pH 7.0, 1 0 mM MgCl2, 1 mM dithiothreitol, 200 μM chorismate and 10 mM L-glutamine. The reaction was started by adding 30 μl of enzyme to the reaction mixture and mixing. The formation of anthranilate was directly monitored by the absorbance increase at […] for 3 min. Initial rate of reaction was calculated as unit absorbance increase per second based on the slope of the absorbance change over the reaction time. Km for chorismate (Km^Cho) was determined in the total volume of 1 ml assay buffer containing 100 mM potassium phosphate, pH 7.0, 10 mM MgCl2, 1 mM dithiothreitol with 10 mM L-glutamine and varying the concentration of chorismate between 2.5–100 μM chorismate. […] Kinetic parameters and IC50 of AS were calculated after fitting the data to a non-linear regression program (GraFit).

[2] = test system: NC(=O)CC[C@H](N)C(=O)O; experiment: as above; type: biochemical, Agrobacterium tumefaciens; details: other: S51F, pH 7.0, 200 μM chorismate, 0.1–2 mM L-glutamine, 25.0 °C
Description: as §1, §2, §3, §4

[3] = test system: C=C(O[C@@H]1C=C(C(=O)O)C=C[C@H]1O)C(=O)O; experiment: Anthranilate synthase enzyme assay and kinetic analysis, N52F mutant; type: biochemical, Agrobacterium tumefaciens; details: other: N52F, pH 7.0, 10 mM L-glutamine, 2.5–100 μM chorismate, 25.0 °C
Description: as §1, §2, §3, §4

[4] = test system: NC(=O)CC[C@H](N)C(=O)O; experiment: as above; type: biochemical, Agrobacterium tumefaciens; details: other: N52F, pH 7.0, 200 μM chorismate, 0.1–2 mM L-glutamine, 25.0 °C
Description: as §1, §2, §3, §4

[5] = test system: C=C(O[C@@H]1C=C(C(=O)O)C=C[C@H]1O)C(=O)O; experiment: Anthranilate synthase enzyme assay and kinetic analysis, P293A mutant; type: biochemical, Agrobacterium tumefaciens; details: other: P293A, pH 7.0, 10 mM L-glutamine, 2.5–100 μM chorismate, 25.0 °C
Description: as §1, §2, §3, §4

[6] = test system: NC(=O)CC[C@H](N)C(=O)O; experiment: as above; type: biochemical, Agrobacterium tumefaciens; details: other: P293A, pH 7.0, 200 μM chorismate, 0.1–2 mM L-glutamine, 25.0 °C
Description: as §1, §2, §3, §4

[7] = test system: C=C(O[C@@H]1C=C(C(=O)O)C=C[C@H]1O)C(=O)O; experiment: Anthranilate synthase enzyme assay and kinetic analysis, S51C mutant; type: biochemical, Agrobacterium tumefaciens; details: other: S51C, pH 7.0, 10 mM L-glutamine, 2.5–100 μM chorismate, 25.0 °C
Description: as §1, §2, §3, §4

[8] = test system: NC(=O)CC[C@H](N)C(=O)O; experiment: as above; type: biochemical, Agrobacterium tumefaciens; details: other: S51C, pH 7.0, 200 μM chorismate, 0.1–2 mM L-glutamine, 25.0 °C
Description: as §1, §2, §3, §4

[9] = test system: C=C(O[C@@H]1C=C(C(=O)O)C=C[C@H]1O)C(=O)O; experiment: Anthranilate synthase enzyme assay and kinetic analysis, P293G mutant; type: biochemical, Agrobacterium tumefaciens; details: other: P293G, pH 7.0, 10 mM L-glutamine, 2.5–100 μM chorismate, 25.0 °C
Description: as §1, §2, §3, §4

[10] = test system: NC(=O)CC[C@H](N)C(=O)O; experiment: as above; type: biochemical, Agrobacterium tumefaciens; details: other: P293G, pH 7.0, 200 μM chorismate, 0.1–2 mM L-glutamine, 25.0 °C
Description: as §1, §2, §3, §4

[11] = test system: C=C(O[C@@H]1C=C(C(=O)O)C=C[C@H]1O)C(=O)O; experiment: Anthranilate synthase enzyme assay and kinetic analysis, S50K mutant; type: biochemical, Agrobacterium tumefaciens; details: other: S50K, pH 7.0, 10 mM L-glutamine, 2.5–100 μM chorismate, 25.0 °C
Description: as §1, §2, §3, §4

[12] = test system: NC(=O)CC[C@H](N)C(=O)O; experiment: as above; type: biochemical, Agrobacterium tumefaciens; details: other: S50K, pH 7.0, 200 μM chorismate, 0.1–2 mM L-glutamine, 25.0 °C
Description: as §1, §2, §3, §4

[13] = test system: C=C(O[C@@H]1C=C(C(=O)O)C=C[C@H]1O)C(=O)O; experiment: Anthranilate synthase enzyme assay and kinetic analysis, V48Y mutant; type: biochemical, Agrobacterium tumefaciens; details: other: V48Y, pH 7.0, 10 mM L-glutamine, 2.5–100 μM chorismate, 25.0 °C
Description: as §1, §2, §3, §4

[14] = test system: NC(=O)CC[C@H](N)C(=O)O; experiment: as above; type: biochemical, Agrobacterium tumefaciens; details: other: V48Y, pH 7.0, 200 μM chorismate, 0.1–2 mM L-glutamine, 25.0 °C
Description: as §1, §2, §3, §4

[15] = test system: C=C(O[C@@H]1C=C(C(=O)O)C=C[C@H]1O)C(=O)O; experiment: Anthranilate synthase enzyme assay and kinetic analysis, wild type; type: biochemical, Agrobacterium tumefaciens; details: other: wild type, 25° C., pH 7.0, 10 mM L-glutamine, 2.5–100 μM chorismate
Description: as §3
(§5) The standard assay for Agrobacterium tumefaciens AS was performed at 25° C. in an assay buffer containing 100 mM potassium phosphate, pH 7.0, 1 0 mM MgCl2, 1 mM dithiothreitol, 200 μM chorismate and 10 mM L-glutamine. The reaction was started by adding 30 μl of enzyme to the reaction mixture and mixing. The formation of anthranilate was directly monitored by the absorbance increase at […] for 3 min. Initial rate of reaction was calculated as unit absorbance increase per second based on the slope of the absorbance change over the reaction time. Km for chorismate (Km^Cho) was determined in the total volume of 1 ml assay buffer containing 100 mM potassium phosphate, pH 7.0, 10 mM MgCl2, 1 mM dithiothreitol with 10 mM L-glutamine and varying the concentration of chorismate between 2.5–100 μM chorismate. The Km for glutamine (Km^Gln) was determined in the total volume of 1 ml assay buffer containing 100 mM potassium phosphate, pH 7.0, 10 mM MgCl2, 1 mM dithiothreitol with 200 μM chorismate and varying the concentration of L-glutamine between 0.1–2 mM L-glutamine. IC50 for tryptophan (IC50TrP) was determined with in the total volume of 1 ml assay buffer containing 100 mM potassium phosphate, pH 7.0, 10 mM MgCl2, 1 mM dithiothreitol, 10 mM L-glutamine, 200 μM chorismate and varying the concentration of L-tryptophan between 0.1–10 mM L-tryptophan. Kinetic parameters and IC50 of AS were calculated after fitting the data to a non-linear regression program (GraFit).

[16] = test system: NC(=O)CC[C@H](N)C(=O)O; experiment: as above; type: biochemical, Agrobacterium tumefaciens; details: other: wild type, pH 7.0, 200 μM chorismate, 0.1–2 mM L-glutamine, 25.0 °C
Description: as §3, §5

[17] = test system: C=C(O[C@@H]1C=C(C(=O)O)C=C[C@H]1O)C(=O)O; experiment: Anthranilate synthase enzyme assay and kinetic analysis, V48F mutant; type: biochemical, Agrobacterium tumefaciens; details: other: V48F, pH 7.0, 10 mM L-glutamine, 2.5–100 μM chorismate, 25.0 °C
Description: as §1, §2, §3, §4

[18] = test system: NC(=O)CC[C@H](N)C(=O)O; experiment: as above; type: biochemical, Agrobacterium tumefaciens; details: other: V48F, pH 7.0, 200 μM chorismate, 0.1–2 mM L-glutamine, 25.0 °C
Description: as §1, §2, §3, §4

[19] = test system: Agrobacterium tumefaciens AS; experiment: Anthranilate synthase enzyme assay and kinetic analysis of purified enzymes; type: biochemical; details: for IC50: inhibition by L-tryptophan
Description: as §3, §5

[20] = Km for chorismate, 10 mM L-glutamine, pH 7.0, 25° C., read-out: Km^Cho
[21] = Km for glutamine, 200 μM chorismate, pH 7.0, read-out: Km^Gln
[22] = 10 mM L-glutamine, 200 μM chorismate

Molecule: Agrobacterium tumefaciens anthranilate synthase variant S51F, SEQ ID NO:60 (Agrobacterium fabrum str. C58; S51F)
- Km [1]: 10 µM
- kcat [1]: 0.08 s⁻¹
- kcat/Km [1]: 8000 M⁻¹ s⁻¹
- Km [2]: 60 µM

Molecule: Agrobacterium tumefaciens anthranilate synthase variant N52F, SEQ ID NO:62 (Agrobacterium fabrum str. C58; N52F)
- Km [3]: 5.5 µM
- kcat [3]: 0.21 s⁻¹
- kcat/Km [3]: 38200 M⁻¹ s⁻¹
- Km [4]: 40 µM

Molecule: Agrobacterium tumefaciens anthranilate synthase variant P293A, SEQ ID NO:63 (Agrobacterium fabrum str. C58; P293A)
- Km [5]: 24 µM
- kcat [5]: 0.35 s⁻¹
- kcat/Km [5]: 14600 M⁻¹ s⁻¹
- Km [6]: 160 µM

Molecule: Agrobacterium tumefaciens anthranilate synthase variant S51C, SEQ ID NO:61 (Agrobacterium fabrum str. C58; S51C)
- Km [7]: 2.8 µM
- kcat [7]: 0.15 s⁻¹
- kcat/Km [7]: 53600 M⁻¹ s⁻¹
- Km [8]: 80 µM

Molecule: Agrobacterium tumefaciens anthranilate synthase variant P293G, SEQ ID NO:64 (Agrobacterium fabrum str. C58; P293G)
- Km [9]: 33 µM
- kcat [9]: 0.48 s⁻¹
- kcat/Km [9]: 14500 M⁻¹ s⁻¹
- Km [10]: 70 µM

Molecule: Agrobacterium tumefaciens anthranilate synthase variant S50K, SEQ ID NO:69 (Agrobacterium fabrum str. C58; S50K)
- Km [11]: 13 µM
- kcat [11]: 0.13 s⁻¹
- kcat/Km [11]: 10000 M⁻¹ s⁻¹
- Km [12]: 10 µM

Molecule: Agrobacterium tumefaciens anthranilate synthase variant V48Y, SEQ ID NO:59 (Agrobacterium fabrum str. C58; V48Y)
- Km [13]: 4.2 µM
- kcat [13]: 0.18 s⁻¹
- kcat/Km [13]: 42800 M⁻¹ s⁻¹
- Km [14]: 100 µM

Molecule: Agrobacterium tumefaciens anthranilate synthase (AgroAS), wild type, SEQ ID NO:4 (Agrobacterium fabrum str. C58)
- Km [15]: 8.0 µM
- kcat [15]: 0.43 s⁻¹
- kcat/Km [15]: 53700 M⁻¹ s⁻¹
- Km [16]: 110 µM

Molecule: Agrobacterium tumefaciens anthranilate synthase variant V48F, SEQ ID NO:58 (Agrobacterium fabrum str. C58; V48F)
- Km [17]: 4.5 µM
- kcat [17]: 0.24 s⁻¹
- kcat/Km [17]: 53300 M⁻¹ s⁻¹
- Km [18]: 80 µM

B1: F298A (protein)
chain: MVTIIQDDGAETYETKGGIQVSRKRRPTDYANAIDNYIEKLDSHRGAVFSSNYEYPGRYTRWDTAIVDPPLGISCFGRKMWIEAYNGRGEVLLDFITEKLKATPDLTLGASSTRRLDLTVNEPDRVFTEEERSKIPTVFTALRAIVDLFYSSADSAIGLFGAFGYDLAFQFDAIKLSLARPEDQRDMVLFLPDEILVVDHYSAKAWIDRYDFEKDGMTTDGKSSDITPDPFKTTDTIPPKGDHRPGEYSELVVKAKESFRRGDLFEVVPGQKFMERCESNPSAISRRLKAINPSPYSAFINLGDQEYLVGASPEMFVRVSGRRIETCPISGTIKRGDDPIADSEQILKLLNSKKDESELTMCSDVDRNDKSRVCEPGSVKVIGRRQIEMYSRLIHTVDHIEGRLRDDMDAFDGFLSHAWAVTVTGAPKLWAMRFIEGHEKSPRAWYGGAIGMVGFNGDMNTGLTLRTIRIKDGIAEVRAGATLLNDSNPQEEEAETELKASAMISAIRDAKGTNSAATKRDAAKVGTGVKILLVDHEDSFVHTLANYFRQTGATVSTVRSPVAADVFDRFQPDLVVLSPGPGSPTDFDCKATIKAARARDLPIFGVCLGLQALAEAYGGELRQLAVPMHGKPSRIRVLEPGLVFSGLGKEVTVGRYHSIFADPATLPRDFIITAESEDGTIMGIEHAKEPVAAVQFHPESIMTLGQDAGMRMIENVVVHLTRKAKTKAA
- kcat [19]: 0.46 s⁻¹
- Km [19, 20]: 9.2 µM
- Km [19, 21]: 100 µM
- IC50 [19, 22]: 5.5 µM

B2: F298W (protein)
chain: B1 chain with A298W
- kcat [19]: 0.44 s⁻¹
- Km [19, 20]: 18 µM
- Km [19, 21]: 140 µM
- IC50 [19, 22]: 450 µM
